How the values were obtained:
[1] = target: MUC2-C, the C-terminal part of the human MUC2 mucin, fully glycosylated (human); test: polyacrylamide gel electrophoresis, non-reduced against reduced; purified MUC2-C; band of around 300 kDa non-reduced, about 150 kDa after reduction
[2] = target: MUC2-C, the C-terminal part of the human MUC2 mucin, fully glycosylated (human); test: SEC-SAXS; 25 °C; 25 mM HEPES pH 7.4, 100 mM NaCl, 10 mM CaCl2; beamline BM29, ESRF

A stoichiometry N [1] of 2 and a stoichiometry N [2] of 2 were found for “MUC2-C, the C-terminal part of the human MUC2 mucin, fully glycosylated (domain or fragment)” in this work.

— PMC10082768
